Laboratory results: patent US20120316071A1 (published 2012)
Residue numbers refer to the chain shown, from its start.

How the values were obtained:
[1] = target: T1, rHuman HGF R/c-MET/Fc Chimera, CF (R&D Systems Cat#358-MT/CF) (human, UniProt P08581 25-932); assay: MSD multispot ECL, antigen spotted, Fab 148.9 nM; blank spot 218
T1 construct: Bought reagent; also called HGF R/Fc; hepatocyte growth factor receptor

[2] = target: T2, rHuman Notch-1/Fc Chimera, CF (R&D Systems Cat#3647-TK) (human, UniProt P46531 19-526); assay: as above
T2 construct: Bought reagent

[3] = target: T3, rHuman Erythropoietin R/Fc Chimera, CF (R&D Systems Cat#963-ER) (human, UniProt P19235 25-250); assay: as above
T3 construct: Bought reagent; also called EPO R/Fc; Epo R
T3 sequence (looked up): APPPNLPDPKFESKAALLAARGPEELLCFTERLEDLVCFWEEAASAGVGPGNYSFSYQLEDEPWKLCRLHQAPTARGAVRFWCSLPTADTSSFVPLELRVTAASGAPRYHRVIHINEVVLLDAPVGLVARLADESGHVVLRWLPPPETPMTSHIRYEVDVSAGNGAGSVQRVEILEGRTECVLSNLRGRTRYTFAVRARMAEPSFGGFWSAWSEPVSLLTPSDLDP

[4] = target: T4, rHuman ErbB2/Fc Chimera, CF (R&D Systems Cat#1129-ER) (human, UniProt P04626 23-652); assay: as above
T4 construct: Bought reagent; also called human epidermal growth factor 2 receptor

[5] = target: T5, rHuman CD44/Fc Chimera, CF (R&D Systems Cat#3660-CD) (human, UniProt P16070 21-220); assay: as above
T5 construct: Bought reagent

[6] = target: T6, rHuman EGF R/Fc Chimera, CF (R&D Systems Cat#344-ER) (human, UniProt P00533 25-645); assay: as above
T6 construct: Bought reagent; also called epidermal growth factor receptor

[7] = target: T7, Recombinant Human DLL4 (R&D Systems Cat#1506-D4/CF) (human, UniProt Q9NR61 27-524); assay: as above
T7 construct: Bought recombinant protein; also called rHuman DLL4; delta-like protein 4

[8] = target: T8, rHuman IGF-1 sR, (IGF-1 sR), CF (R&D Systems Cat#391-GR) (human, UniProt P08069 31-932); assay: as above
T8 construct: Bought soluble receptor; also called insulin-like growth factor-1 soluble receptor

[9] = target: T1, rHuman HGF R/c-MET/Fc Chimera, CF (R&D …); assay: MSD multispot ECL, antigen spotted, Fab 0.1 nM; blank spot 201
[10] = target: T2, rHuman Notch-1/Fc Chimera, CF (R&D …); assay: as above
[11] = target: T3, rHuman Erythropoietin R/Fc Chimera, CF …; assay: as above
[12] = target: T4, rHuman ErbB2/Fc Chimera, CF (R&D …); assay: as above
[13] = target: T6, rHuman EGF R/Fc Chimera, CF (R&D …); assay: as above
[14] = target: T8, rHuman IGF-1 sR, (IGF-1 sR), CF (R&D …); assay: as above
[15] = target: T9, rHuman IGF-1 sR (IGF-1 sR), CF (R&D Systems Cat#391-GR) (human, UniProt P08069 31-932); assay: Multispot ECL (MSD) titration; antigen spotted on plate; Fab 930 nM; blank spot 1206
T9 construct: Bought soluble receptor; also called insulin-like growth factor-1 soluble receptor

[16] = target: T10, rHuman P-Cadherin/Fc Chimera, CF (R&D Systems Cat#861-PC) (human, UniProt P22223 108-654); assay: as above
T10 construct: Bought Fc chimera; Fc part of the bought chimera not given

[17] = target: T11, rHuman Notch-1/Fc Chimera, CF (R&D Systems Cat#3647-TK) (human, UniProt P46531 19-526); assay: as above
T11 construct: Bought Fc chimera; Fc part of the bought chimera not given

[18] = target: T12, rHuman CD44/Fc Chimera, CF (R&D Systems Cat#3660-CD) (human, UniProt P16070 21-220); assay: as above
T12 construct: Bought Fc chimera; Fc part of the bought chimera not given

[19] = target: T13, Recombinant Human DLL4 (R&D Systems Cat#1506-D4/CF) (human, UniProt Q9NR61 27-524); assay: as above
T13 construct: Bought recombinant protein; also called delta-like protein 4; rHuman DLL4

[20] = target: T14, rHuman ErbB2/Fc Chimera, CF (R&D Systems Cat#1129-ER) (human, UniProt P04626 23-652); assay: as above
T14 construct: Bought Fc chimera; also called human epidermal growth factor 2 receptor; Fc part of the bought chimera not given

T1 sequence (P08581 25-932, change not shown): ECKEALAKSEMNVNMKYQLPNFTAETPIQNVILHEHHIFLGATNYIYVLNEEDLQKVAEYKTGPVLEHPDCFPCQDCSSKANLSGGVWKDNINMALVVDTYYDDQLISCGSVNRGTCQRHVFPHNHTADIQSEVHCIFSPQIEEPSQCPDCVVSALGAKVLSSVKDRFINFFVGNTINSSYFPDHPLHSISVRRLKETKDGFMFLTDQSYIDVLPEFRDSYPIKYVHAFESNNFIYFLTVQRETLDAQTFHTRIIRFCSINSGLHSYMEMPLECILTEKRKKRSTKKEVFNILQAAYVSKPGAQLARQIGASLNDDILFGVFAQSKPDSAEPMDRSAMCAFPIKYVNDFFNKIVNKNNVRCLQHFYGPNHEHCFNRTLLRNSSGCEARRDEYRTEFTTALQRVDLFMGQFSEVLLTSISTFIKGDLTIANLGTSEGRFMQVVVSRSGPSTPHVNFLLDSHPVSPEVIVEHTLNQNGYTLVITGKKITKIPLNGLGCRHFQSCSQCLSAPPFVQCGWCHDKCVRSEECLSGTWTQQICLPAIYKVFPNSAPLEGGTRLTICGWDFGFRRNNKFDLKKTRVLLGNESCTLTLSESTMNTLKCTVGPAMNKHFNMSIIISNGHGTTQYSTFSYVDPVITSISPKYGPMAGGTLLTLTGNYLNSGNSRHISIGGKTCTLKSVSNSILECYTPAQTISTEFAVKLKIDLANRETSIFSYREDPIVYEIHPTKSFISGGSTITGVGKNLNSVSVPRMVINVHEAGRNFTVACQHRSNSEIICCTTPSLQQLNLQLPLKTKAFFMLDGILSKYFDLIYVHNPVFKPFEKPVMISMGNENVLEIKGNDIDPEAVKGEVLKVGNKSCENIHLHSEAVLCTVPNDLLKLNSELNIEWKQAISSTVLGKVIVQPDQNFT

B1: Fab VH1-46_IGHD6-6*01_IGHJ1*01 & L6_IGKJ1*01 (Fab, V domains shown)
VH: QVQLVQSGAEVKKPGASVKVSCKASGYTFTSYYMHWVRQAPGQGLEWMGIINPSGGSTSYAQKFQGRVTMTRDTSTSTVYMELSSLRSEDTAVYYCAREEYSSSSAEYFQHWGQGTLVTVSS
VL: not shown
notes: Only variable domains are tied to the molecule; Tested as a Fab made in E. coli: heavy chain from Plasmid A (CH1 constant region, His6 and Flag tags), kappa light chain from Plasmid C (kappa CL); also called parent Hit Fab against DLL4; VH1-46_IGHD6-6*01_IGHJ1*01 & L6_IGKJ1*01 (parental)
- ECL signal [1]: 205 ECL signal
- ECL signal [2]: 375 ECL signal
- ECL signal [3]: 373 ECL signal
- ECL signal [4]: 247 ECL signal
- ECL signal [5]: 348 ECL signal
- ECL signal [6]: 290 ECL signal
- ECL signal [7]: 16300 ECL signal
- ECL signal [8]: 322 ECL signal
- ECL signal [9]: 286 ECL signal
- ECL signal [10]: 378 ECL signal
- ECL signal [11]: 373 ECL signal
- ECL signal [12]: 306 ECL signal
- ECL signal [13]: 311 ECL signal
- ECL signal [14]: 241 ECL signal

B2: Fab VH1-46_IGHD6-13*01_IGHJ4*01 & O1_IGKJ1*01 (Fab, V domains shown)
VH: B1 VH with E100G, S105W, A106Y, E107D, Q110D, H111Y
VL: DIVMTQTPLSLPVTPGEPASISCRSSQSLLDSDDGNTYLDWYLQKPGQSPQLLIYTLSYRASGVPDRFSGSGSGTDFTLKISRVEAEDVGVYYCMQRIEFPSWTFGQGTKVEIKR
notes: Germline library Fab expressed in E. coli; VH was cloned into Plasmid A (CH1 constant region, His6 and Flag tags); The kappa VL was cloned into Plasmid C (kappa CL)
- ECL signal [15]: 1920
- ECL signal [16]: 2440
- ECL signal [17]: 2210
- ECL signal [18]: 1920
- ECL signal [19]: 8160
- ECL signal [20]: 2220
